One protein from FireProtDB (doi:10.1021/bi034486i) can be followed below.

Where “and” joins values, the source holds several entries; their conditions need not be identical. Equal values may be shown once.

For the data set the following is noted: Homo sapiens; pH 7.82; 20 °C; GdnHCl; CD; sodium phosphate 50 mM; whole UniProt chain shown.

B1: Thioredoxin-like protein 4A wild type, P83876 (protein)
chain: MSYMLPHLHNGWQVDQAILSEEDRVVVIRFGHDWDPTCMKMDEVLYSIAEKVKNFAVIYLVDITEVPDFNKMYELYDPCTVMFFFRNKHIMIDLGTGNNNKINWAMEDKQEMVDIIETVYRGARKGRGLVVSPKDYSTKYRY
For B1, the denaturant m value was 2.16 kcal/mol/M and 3.24 kcal/mol/M; the “denaturant midpoint (higher = more stable)” value is 3.39 M and 3.41 M; the unfolding free energy is 7.32 kcal/mol and 11.1 kcal/mol.
